Test results: the supplement of paper PMC10567573

B1: MTMR15 (parent)
chain: FSPDFTLRNTLKSTSEDSLVKQEC
B2: RPS21 (parent)
chain: AEVSWEPGRREGCDICAGKAGCPI

Variants of: B1
Assay: protein stability index of a GFP-peptide fusion (GPS, HEK-293T) (PSI 1-6); higher = more stable
Settings: c terminus: a fixed tail appended
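Note: lentivirally expressed fusions sorted by FACS into six bins by GFP to DsRed ratio, PSI derived from sequencing read proportions per bin multiplied by bin number.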

| Variant | protein stability index |
| --- | --- |
| S2D | 5 |
| T6H | 1.45 |
| T14Q | 2.31 |
| E23Q | 2.3 |
| L19E | 2.1 |
| L19S | 1.97 |
| S2V | 2.88 |
| V20W | 2.12 |
| S15W | 2.02 |
| S2G | 2.48 |
| N9W | 2.62 |
| K12H | 1.71 |
| S13R | 3.03 |
| L7D | 3.03 |
| K21F | 2.06 |
| T6Q | 2.24 |
| S2M | 3.69 |
| Q22L | 1.88 |
| K12L | 2.28 |

| Variant | protein stability index |
| --- | --- |
| Q22F | 2.65 |
| T14A | 1.54 |
| S18W | 1.75 |
| S18M | 2.37 |
| F1K | 5 |
| P3R | 1.98 |
| C24R | 2.34 |
| F5L | 3.54 |
| V20R | 2.21 |
| V20T | 2.01 |
| K21D | 2.23 |
| D4Y | 3.03 |
| T10C | 2.14 |
| Q22E | 2.15 |
| F1W | 4.39 |
| F1S | 4.81 |
| N9A | 1.67 |
| Q22M | 1.65 |
| L7F | 2.04 |

| Variant | protein stability index |
| --- | --- |
| L11T | 1.81 |
| F1C | 4.17 |
| E23T | 1.75 |
| T10M | 2.11 |
| N9F | 2.7 |
| T14L | 2 |
| D4Q | 1.45 |
| C24N | 2.16 |
| T10R | 2.15 |
| D4R | 2.65 |
| E16K | 1.75 |
| S18H | 1.92 |
| N9I | 2.41 |
| L7V | 1.83 |
| E16L | 1.75 |
| S13W | 2.66 |
| S13L | 1.83 |
| S15K | 1.73 |
| T6W | 1.84 |

Variants of: B2
Assay: as above
Settings: c terminus: a fixed tail appended

| Variant | protein stability index |
| --- | --- |
| A1C | 2.9 |
| A1D | 3.94 |
| A1E | 3.49 |
| A1F | 1.94 |
| A1G | 3.57 |
| A1H | 2.65 |
| A1K | 2.67 |
| A1M | 3.37 |
| A1P | 3.8 |
| A1R | 3.51 |
| A1S | 2.71 |
| A1V | 1.36 |
| A1Y | 2.76 |
| E2C | 2.91 |
| E2D | 3.79 |
| E2F | 1.23 |
| E2G | 3.38 |
| E2H | 2.02 |
| E2K | 1.92 |
| E2L | 3.09 |
| E2M | 2.83 |
| E2N | 3.51 |

| Variant | protein stability index |
| --- | --- |
| E2Q | 2.36 |
| E2R | 1.99 |
| E2S | 2.94 |
| E2T | 2.84 |
| E2Y | 2.68 |
| V3A | 4.16 |
| V3C | 3.78 |
| V3D | 4 |
| V3E | 4.58 |
| V3F | 2.68 |
| V3G | 4 |
| V3H | 4.16 |
| V3I | 2.23 |
| V3K | 4 |
| V3M | 1.9 |
| V3P | 3.87 |
| V3Q | 3.17 |
| V3R | 3.01 |
| V3S | 3.34 |
| V3T | 3.66 |
| V3W | 3.27 |
| V3Y | 3.54 |

| Variant | protein stability index |
| --- | --- |
| S4A | 4.39 |
| S4C | 3.24 |
| S4D | 3.41 |
| S4E | 4.2 |
| S4F | 2.45 |
| S4G | 3.64 |
| S4K | 3.77 |
| S4L | 3.81 |
| S4M | 1.58 |
| S4N | 4.34 |
| S4T | 2.54 |
| S4V | 3.23 |
| S4W | 2.79 |
| S4Y | 2.92 |
| W5C | 4.24 |
| W5D | 4.85 |
| W5E | 4.64 |
| W5F | 3.53 |
| W5I | 3.7 |
| W5K | 4.84 |
| W5L | 3.12 |
| W5M | 3.06 |

| Variant | protein stability index |
| --- | --- |
| W5P | 5.67 |
| W5Q | 4.19 |
| W5R | 3.04 |
| W5S | 4.06 |
| W5T | 4.04 |
| W5V | 4.44 |
| W5Y | 2.91 |
| E6C | 2.23 |
| E6F | 2.14 |
| E6G | 2.36 |
| E6H | 5.82 |
| E6I | 2 |
| E6M | 2.6 |
| E6N | 3.49 |
| E6P | 3 |
| E6Q | 2.78 |
| E6R | 3.04 |
| E6T | 2.79 |
| E6V | 2.66 |
| E6W | 1.56 |
| E6Y | 1.76 |
| P7C | 2.69 |

| Variant | protein stability index |
| --- | --- |
| P7E | 4 |
| P7F | 2.21 |
| P7H | 3.92 |
| P7I | 2.97 |
| P7Q | 2.6 |
| P7R | 2.53 |
| P7S | 2.77 |
| P7V | 2.23 |
| P7Y | 2.9 |
| G8C | 3.67 |
| G8F | 2.46 |
| G8H | 2.54 |
| G8I | 2.78 |
| G8K | 3.03 |
| G8M | 2.59 |
| G8N | 3.41 |
| G8P | 3.24 |
| G8Q | 3.99 |
| G8R | 2.77 |
| G8T | 2.72 |
| G8W | 2.01 |
| G8Y | 1.74 |
